The source of these data is patent JP2014043405A (dated 2014).

Where a chain is given by its changes, count along the chain named.

One assay has as its target T1, マウスFcγRIII (mouse, UniProt P08508 31-215, limits assumed).
T1 construct: also called mouse FcγRIII
T1 sequence (looked up): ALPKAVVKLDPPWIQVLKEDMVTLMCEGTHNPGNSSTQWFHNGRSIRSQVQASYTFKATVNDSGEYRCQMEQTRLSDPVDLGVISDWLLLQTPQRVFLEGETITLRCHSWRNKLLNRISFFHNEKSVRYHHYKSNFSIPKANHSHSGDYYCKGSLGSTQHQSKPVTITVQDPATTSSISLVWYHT
Nature of the assay: SPR, Biacore; antibody captured on immobilised mouse FcRn, FcγR as analyte, pH 7.4, 25C.

The target in the next assay is T2, マウスFcγRIIb (mouse, UniProt P08101 30-210, limits assumed).
T2 construct: also called mouse FcγRIIb
T2 sequence (looked up): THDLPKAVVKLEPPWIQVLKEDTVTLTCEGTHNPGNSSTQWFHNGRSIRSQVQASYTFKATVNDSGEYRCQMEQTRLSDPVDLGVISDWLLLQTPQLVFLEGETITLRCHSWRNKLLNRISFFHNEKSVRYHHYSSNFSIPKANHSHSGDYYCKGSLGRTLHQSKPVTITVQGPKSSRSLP
The description is as above.

The target in a further assay is T3, マウスFcγRI (mouse, UniProt P26151 25-297, limits assumed).
T3 construct: also called mouse FcγRI
T3 sequence (looked up): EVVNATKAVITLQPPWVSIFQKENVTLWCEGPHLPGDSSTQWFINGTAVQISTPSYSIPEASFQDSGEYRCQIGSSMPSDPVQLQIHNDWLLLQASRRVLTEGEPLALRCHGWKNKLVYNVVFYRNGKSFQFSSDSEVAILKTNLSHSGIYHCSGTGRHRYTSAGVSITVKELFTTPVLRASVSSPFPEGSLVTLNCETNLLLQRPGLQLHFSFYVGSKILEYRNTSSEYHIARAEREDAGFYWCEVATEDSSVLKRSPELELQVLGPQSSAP
The description is as above.

The target in assay [1] is T4, ヒトFcγRIIb (human, UniProt P31994 43-217).
T4 construct: extracellular domain; for the crystals it was expressed with kifunensine and its N-glycans trimmed with Endo F1; also called FcγRIIb細胞外領域
T4 sequence (looked up): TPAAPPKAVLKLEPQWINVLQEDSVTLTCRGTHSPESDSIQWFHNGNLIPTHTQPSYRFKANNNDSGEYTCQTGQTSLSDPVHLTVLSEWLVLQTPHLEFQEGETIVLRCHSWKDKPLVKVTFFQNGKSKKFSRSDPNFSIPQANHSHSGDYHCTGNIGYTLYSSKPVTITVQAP
Nature of the assay: SPR, KD; reference IL6R-BP230/IL6R-L. In general terms: Surface plasmon resonance follows binding to a sensor surface in real time, without labels.

In a further assay the target is T5, ヒトFcγRIIa (R) (human, UniProt P12318 34-217).
T5 construct: extracellular domain; N-glycans trimmed with Endo F1/F2/F3 for the crystals; also called FcγRIIa R型
T5 sequence (looked up): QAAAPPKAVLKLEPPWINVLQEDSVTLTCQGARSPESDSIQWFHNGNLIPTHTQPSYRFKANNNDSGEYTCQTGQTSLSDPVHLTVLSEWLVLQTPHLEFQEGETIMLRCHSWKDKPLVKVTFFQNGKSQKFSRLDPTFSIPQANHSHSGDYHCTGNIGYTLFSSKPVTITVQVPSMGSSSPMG
The experiment in a line: SPR, KD; reference IL6R-BP230/IL6R-L.

Assay [2] concerns the target T4, ヒトFcγRIIb. The experiment in a line: SPR; KD for FcγRIIaR divided by KD for FcγRIIb.
For assay [3], the target named is T4, ヒトFcγRIIb. Nature of the assay: SPR, KD; reference IL6R-B3/IL6R-L; the highest of the named variants.
For assay [4], the target named is T4, ヒトFcγRIIb. Nature of the assay: SPR, KD; reference IL6R-B3/IL6R-L; the lowest of the named variants.
Assay [5] deals with T4, ヒトFcγRIIb. The experiment in a line: SPR; KD for FcγRIIaH divided by KD for FcγRIIb.
The next assay addresses T6, ヒトFcγRIIa (H) (human, UniProt P12318 34-217).
T6 construct: extracellular domain; also called FcγRIIa H型
T6 sequence (looked up): T5 sequence (looked up) with R134H
The experiment in a line: SPR, KD.

In a further assay the target is ヒトFcγRIa (human, UniProt P12314 16-292). Nature of the assay: SPR, KD.
Sequence of ヒトFcγRIa (P12314 16-292): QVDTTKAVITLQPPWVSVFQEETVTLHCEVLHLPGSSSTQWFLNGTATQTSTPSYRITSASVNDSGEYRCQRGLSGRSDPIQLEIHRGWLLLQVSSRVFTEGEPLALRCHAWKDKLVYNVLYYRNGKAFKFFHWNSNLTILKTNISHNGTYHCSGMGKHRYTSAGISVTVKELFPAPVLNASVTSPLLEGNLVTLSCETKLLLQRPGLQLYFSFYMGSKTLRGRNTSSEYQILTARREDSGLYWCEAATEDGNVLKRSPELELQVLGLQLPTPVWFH

B1: Fv4-IgG1-F20 (antibody)
heavy: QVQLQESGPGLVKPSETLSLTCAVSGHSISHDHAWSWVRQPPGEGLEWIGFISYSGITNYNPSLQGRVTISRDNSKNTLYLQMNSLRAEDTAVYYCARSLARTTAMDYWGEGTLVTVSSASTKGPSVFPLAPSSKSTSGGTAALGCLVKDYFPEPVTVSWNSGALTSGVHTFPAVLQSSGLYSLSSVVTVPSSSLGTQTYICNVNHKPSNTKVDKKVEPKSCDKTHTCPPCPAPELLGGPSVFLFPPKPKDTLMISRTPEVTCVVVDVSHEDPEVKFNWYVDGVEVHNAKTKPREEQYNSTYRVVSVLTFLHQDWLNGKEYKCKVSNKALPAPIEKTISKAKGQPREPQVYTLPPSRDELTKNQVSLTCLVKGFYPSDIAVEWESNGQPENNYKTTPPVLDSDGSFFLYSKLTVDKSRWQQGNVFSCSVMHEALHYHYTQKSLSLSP
light: DIQMTQSPSSLSASVGDSVTITCQASTDISSHLNWYQQKPGKAPELLIYYGSHLLSGVPSRFSGSGSGTDFTFTISSLEAEDAATYYCGQGNRLPYTFGQGTKVEIERTVAAPSVFIFPPSDEQLKSGTASVVCLLNNFYPREAKVQWKVDNALQSGNSQESVTEQDSKDSTYSLSSTLTLSKADYEKHKVYACEVTHQGLSSPVTKSFNRGEC
notes: also called VH3-IgG1-F20/VL3-CK
For B1, the binding result with マウスFcγRIII, with マウスFcγRIIb and with マウスFcγRI was “binds” throughout.

B2: IL6R-BP478/IL6R-L (antibody)
chain 1: QVQLQESGPGLVKPSETLSLTCAVSGHSISHDHAWSWVRQPPGEGLEWIGFISYSGITNYNPSLQGRVTISRDNSKNTLYLQMNSLRAEDTAVYYCARSLARTTAMDYWGEGTLVTVSSASTKGPSVFPLAPCSRSTSESTAALGCLVKDYFPEPVTVSWNSGALTSGVHTFPAVLQSSGLYSLSSVVTVPSSSLGTKTYTCNVDHKPSNTKVDKRVESKYGPPCPPCPAPDLLGDDSVFLFPPKPKDTLMISRTPEVTCVVVDVSDEDGEVKFNWYVDGVEVHNAKTKPREEQDNSTYRVVSVLTVLHQDWLNGKEYKCKVSNKALPRPIEKTISKAKGQPREPQVYTLPPSRDELTKNQVSLTCLVKGFYPSDIAVEWESNGQPENNYKTTPPVLDSDGSFFLYSKLTVDKSRWQQGNVFSCSVMHEALHNHYTQESLSLSP
chain 2: not shown
Consider B2, for which, in the assay with ヒトFcγRIIb [1], the “fold enhancement of binding against IL6R-BP230/IL6R-L” value was found to be 1.1 fold. Besides, in the assay with ヒトFcγRIIa (R), the “binding relative to IL6R-BP230/IL6R-L” value worked out at 0.9 fold.

B3: IL6R-BP473/IL6R-L (antibody)
chain 1: QVQLQESGPGLVKPSETLSLTCAVSGHSISHDHAWSWVRQPPGEGLEWIGFISYSGITNYNPSLQGRVTISRDNSKNTLYLQMNSLRAEDTAVYYCARSLARTTAMDYWGEGTLVTVSSASTKGPSVFPLAPSSKSTSGGTAALGCLVKDYFPEPVTVSWNSGALTSGVHTFPAVLQSSGLYSLSSVVTVPSSSLGTQTYICNVNHKPSNTKVDKKVEPKSCDKTHTCPPCPAPDLLGDDSVFLFPPKPKDTLMISRTPEVTCVVVDVSDEDGEVKFNWYVDGVEVHNAKTKPREEQDNSTYRVVSVLTVLHQDWLNGKEYKCKVSNKGLPRPIEKTISKAKGQPREPQVYTLPPSRDELTKNQVSLTCLVKGFYPSDIAVEWESNGQPENNYKTTPPVLDSDGSFFLYSKLTVDKSRWQQGNVFSCSVMHEALHNHYTQESLSLSP
chain 2: not shown
As for B3, the “fold enhancement of binding against IL6R-BP230/IL6R-L” value with ヒトFcγRIIb [1] worked out at 1.2 fold.

B4: IL6R-BP231/IL6R-L (antibody)
chain 1: B3 chain 1 with D235E, G329A
chain 2: not shown
Turning to B4, the “KD (IIaR)/KD (IIb)” value with ヒトFcγRIIb [2] turned out to be 32.2 ratio.

B5: IL6R-BP489/IL6R-L (antibody)
chain 1: B3 chain 1 with V266I, S269A, D270E, G329A, P398M
chain 2: not shown
Consider B5, for which the “fold enhancement of binding, IL6R-B3/IL6R-L = 1” value in the assay with ヒトFcγRIIb [3] was determined as 3100 fold.

B6: IL6R-BP495/IL6R-L (antibody)
chain 1: B3 chain 1 with D235E, S269G, D270E, G329A
chain 2: not shown
For B6, the “fold enhancement of binding, IL6R-B3/IL6R-L = 1” value with ヒトFcγRIIb [4] was determined as 321 fold.

B7: IL6R-BP480/IL6R-L (antibody)
chain 1: B3 chain 1 with V268L, D270E, E271D, D298Y, G329A, R332A
chain 2: not shown
Take B7: the “KD (IIaH)/KD (IIb)” value with ヒトFcγRIIb [5] stood at 108 ratio.

B8: IL6R-BP234/IL6R-L (antibody)
chain 1: B3 chain 1 with L236Y, S269Q, K328D, G329A, R332K
chain 2: not shown
As for B8, the “KD (IIaR)/KD (IIb)” value in the assay with ヒトFcγRIIb [2] stood at 10 ratio.

B9: IL6R-BP426/IL6R-L (antibody)
chain 1: B3 chain 1 with S269A, D270E, E271D, D298Y, G329A
chain 2: not shown
Turning to B9, in the assay with ヒトFcγRIIb [5], the “KD (IIaH)/KD (IIb)” value was found to be 8360 ratio.

B10: mPM1-mIgG1-mF3 (antibody)
heavy: DVQLQESGPVLVKPSQSLSLTCTVTGYSITSDHAWSWIRQFPGNKLEWMGYISYSGITTYNPSLKSRISITRDTSKNQFFLQLNSVTTGDTSTYYCARSLARTTAMDYWGQGTSVTVSSAKTTPPSVYPLAPGSAAQTNSMVTLGCLVKGYFPEPVTVTWNSGSLSSGVHTFPAVLQSDLYTLSSSVTVPSSTWPSETVTCNVAHPASSTKVDKKIVPRDCGCKPCICTVPEVSSVFIFPPKPKDVLYITLEPKVTCVVVDISKDDPEVQFSWFVDDVEVHTAQTQPREEQFNSTFRSVSELPIMHQDWLNGKEFKCRVNSAAFPAPIEKTISKTKGRPKAPQVYTIPPPKEQMAKDKVSLTCMITDFFPEDITVEWQWNGQPAENYKNTQPIMDTDGSYFVYSKLNVQKSNWEAGNTFTCSVLHEGLKFHHTEKSLSHSPGK
light: DIQMTQTTSSLSASLGDRVTISCRASQDISSYLNWYQQKPDGTIKLLIYYTSRLHSGVPSRFSGSGSGTDYSLTINNLEQEDIATYFCQQGNTLPYTFGGGTKLEIKRADAAPTVSIFPPSSEQLTSGGASVVCFLNNFYPKDINVKWKIDGSERQNGVLNSWTDQDSKDSTYSMSSTLTLTKDEYERHNSYTCEATHKTSTSPIVKSFNRNEC
notes: mouse IgG1; also called mPM1H-mIgG1-mF3/mPM1L-mk1
B10: the binding result with マウスFcγRIII was “binds”; in the assay with マウスFcγRIIb, “binds”; with マウスFcγRI, “no binding”.

B11: IL6R-G4d/IL6R-L (antibody, human IgG4 S228P)
heavy: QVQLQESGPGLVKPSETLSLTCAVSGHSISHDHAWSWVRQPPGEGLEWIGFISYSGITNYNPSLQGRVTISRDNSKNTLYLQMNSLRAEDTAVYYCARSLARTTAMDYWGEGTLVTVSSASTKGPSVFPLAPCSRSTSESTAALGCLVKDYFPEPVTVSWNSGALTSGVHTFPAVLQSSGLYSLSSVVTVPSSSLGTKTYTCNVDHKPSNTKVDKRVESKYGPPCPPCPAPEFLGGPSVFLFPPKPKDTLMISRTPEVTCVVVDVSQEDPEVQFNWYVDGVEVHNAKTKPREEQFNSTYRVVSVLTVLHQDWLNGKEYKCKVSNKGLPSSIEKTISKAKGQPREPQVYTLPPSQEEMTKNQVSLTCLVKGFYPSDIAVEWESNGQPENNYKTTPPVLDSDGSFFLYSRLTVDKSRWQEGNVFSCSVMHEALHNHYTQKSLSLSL
light: DIQMTQSPSSLSASVGDRVTITCRASQDISSYLNWYQQKPGKAPKLLIYYTSRLHSGVPSRFSGSGSGTDFTFTISSLQPEDIATYYCQQGNTLPYTFGQGTKVEIK
With B11, the binding result in the assay with ヒトFcγRIIa (H) and with ヒトFcγRIa was “binds” in each case.

B12: IL6R-BP253/IL6R-L (antibody, human IgG1)
heavy: B3 chain 1 with D235E, D239G, D240P, S269E, D270H, G273P, D298Y, G329A, L330F, R332A
light: B11 light
notes: comparison antibody with the known FcγRIIb-enhancing substitutions
B12: the binding result in the assay with ヒトFcγRIIa (H) and with ヒトFcγRIa was “binds” each time.
